{
  "source": "paper PMC9300185",
  "about": "(Chembiochem, 2021)",
  "biological_target": "the molecule itself",
  "assay": "crystal structure",
  "data": [
    {"protein": "LecA, galactose-binding lectin of Pseudomonas aeruginosa (natural protein) AWKGEVLANNEAGQVTSIIYNPGDVITIVAAGWASYGPTQKWGPQGDREHPDQGLICHDAFCGALVMKIGNSGTIPVNTGLFRWVAPNNVQGAITLIYNDVPGTYGNNSGSFSVNIGKDQS", "values": [
      {"measurement": "stoichiometry N", "value": 4}
    ]}
  ]
}
